One may read the stoichiometry N as the number of molecules, sites or subunits per partner or assembly.

One data set concerns the target T1, hexa-Fc N297A/N563A (human).
T1 chain: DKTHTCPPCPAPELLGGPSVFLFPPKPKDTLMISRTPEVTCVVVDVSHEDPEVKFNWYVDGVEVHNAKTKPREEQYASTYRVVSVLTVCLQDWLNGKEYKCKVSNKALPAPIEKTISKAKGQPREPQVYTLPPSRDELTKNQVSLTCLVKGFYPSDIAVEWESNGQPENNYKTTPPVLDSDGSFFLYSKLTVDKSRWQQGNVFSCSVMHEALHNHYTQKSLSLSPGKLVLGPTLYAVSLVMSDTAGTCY
Kind of data set: SEC + other: non-reducing SDS-PAGE; molecular mass ∼650–700 kDa; SEC shown for N563A (supplemental Fig. S2); sizes counted in Fc units of two chains. The settings on record: both partners purified.

Data set [1] deals with the molecule itself. The description is as above.

B1: hexa-Fc N297A/N563A (other)
chain: DKTHTCPPCPAPELLGGPSVFLFPPKPKDTLMISRTPEVTCVVVDVSHEDPEVKFNWYVDGVEVHNAKTKPREEQYASTYRVVSVLTVCLQDWLNGKEYKCKVSNKALPAPIEKTISKAKGQPREPQVYTLPPSRDELTKNQVSLTCLVKGFYPSDIAVEWESNGQPENNYKTTPPVLDSDGSFFLYSKLTVDKSRWQQGNVFSCSVMHEALHNHYTQKSLSLSPGKLVLGPTLYAVSLVMSDTAGTCY
modifications: no N-glycans; multimer, approximately dodecamers of Fc / no N-glycans; multimer, approximately dodecamers of Fc
As for B1, the “stoichiometry N” value with hexa-Fc N297A/N563A was around 12.

B2: hexa-Fc D221N/N297A/N563A (other)
chain: NKTHTCPPCPAPELLGGPSVFLFPPKPKDTLMISRTPEVTCVVVDVSHEDPEVKFNWYVDGVEVHNAKTKPREEQYASTYRVVSVLTVCLQDWLNGKEYKCKVSNKALPAPIEKTISKAKGQPREPQVYTLPPSRDELTKNQVSLTCLVKGFYPSDIAVEWESNGQPENNYKTTPPVLDSDGSFFLYSKLTVDKSRWQQGNVFSCSVMHEALHNHYTQKSLSLSPGKLVLGPTLYAVSLVMSDTAGTCY
modifications: N-linked glycan at Asn-221
In the case of B2, in data set [1], the “stoichiometry N” value is around 12.

Values taken from paper PMC5546038, “Engineering the fragment crystallizable (Fc) region of human IgG1 multimers and monomers to fine-tune interactions with sialic acid-dependent receptors” (The Journal of Biological Chemistry, 2017).
